Test results published in patent publication US20050164926A1 (published 2005).

Target: porcine trypsin (porcine, UniProt P00761 9-231)
Test: cell-based or functional assay

Chain of porcine trypsin (P00761 9-231 limits assumed): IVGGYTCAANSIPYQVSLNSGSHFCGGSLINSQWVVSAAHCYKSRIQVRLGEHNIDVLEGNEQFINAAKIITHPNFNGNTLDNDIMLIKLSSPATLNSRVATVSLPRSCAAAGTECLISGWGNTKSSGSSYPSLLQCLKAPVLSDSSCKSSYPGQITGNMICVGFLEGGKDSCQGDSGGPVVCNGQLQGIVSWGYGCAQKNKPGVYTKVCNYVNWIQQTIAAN

apparent stoichiometry of inhibition (amidolysis of S2444, titration of trypsin activity): 1 mol inhibitor per mol enzyme
B1: ANV-KAPP (other)
chain: AQVLRGTVTDFPGFDERADAETLRKAMKGLGTDEESILTLLTSRSNAQRQEISAAFKTLFGRDLLDDLKSELTGKFEKLIVALMKPSRLYDAYELKHALKGAGTNEKVLTEIIASRTPEELRAIKQVYEEEYGSSLEDDVVGDTSGYYQRMLVVLLQANRDPDAGIDEAQVEQDAQALFQAGELKWGTDEEKFITIFGTRSVSHLRKVFDKYMTISGFQIEETIDRETSGNLEQLLLAVVKSIRSIPAYLAETLYYAMKGAGTDDHTLIRVMVSRSEIDLFNIRKEFRKNFATSLYSMIKGDTSGDYKKALLLLAGEDDEVCSEQAETGPCRAMISRWYFDVTEGKCAPFFYGGCGGNRNNFDTEEYCMAVCGSAI
